Laboratory results taken from patent publication US20250043001A1 (Xencor, published 2025).
Changes are numbered by the printed parent chain. Blank lines part the entries; values can stand above or below the binder they belong to.

Tests used:
STEAP1 = target: T1, STEAP1 (UniProt Q9UHE8 1-339, limits assumed); assay: flow cytometry, bivalent mAbs on C4-2B cells
T1 construct: whole, on cells; also called Six-Transmembrane Epithelial Antigen of the Prostate 1
Protocol: Optimized humanized STEAP-A variants were then engineered in order to improve their binding affinity to STEAP-1. In the first round, 82 variant VLs were engineered as L1.4-L1.85 and 151 variant VHs were engineered as H1.39-H1.189. Variants were produced as bivalent mAbs, the sequences for which are depicted in FIG. 30. The bivalent mAbs were then screened for binding to STEAP-1 on C4-2B cells. Cells were mixed with mAbs and incubated for 1 hour on ice, washed with PBS, stained with secondary antibody for 1 hour on ice, and washed again before analyzing binding utilizing flow cytometry.
In the second round, 34 variant VLs were engineered and designated as L1.86-L1.119 and 39 variant VHs were engineered and designated as H1.190-H1.228. Bivalent mAbs from the second round of affinity maturation were also screened for binding to STEAP-1 expressed on C4-2B cells. Flow cytometry analysis was used to determine relative maximum MFI values, AUC values, and approximate EC50 values for each test article, as summarized in FIG. 34. […] A final set of variable heavy domain substitutions were engineered and designated H1.229- H1.232. […] Sequences for each variant VH and VL are depicted in FIGS. 31 and 32, respectively.

CEACAM5 [1] = target: T2, CEACAM5 (UniProt P06731 35-685); assay: affinity at 25 C (Octet per FIG. 79 legend)
T2 construct: also called carcinoembryonic antigen-related cell adhesion molecule 5; CD66e
T2 sequence (looked up): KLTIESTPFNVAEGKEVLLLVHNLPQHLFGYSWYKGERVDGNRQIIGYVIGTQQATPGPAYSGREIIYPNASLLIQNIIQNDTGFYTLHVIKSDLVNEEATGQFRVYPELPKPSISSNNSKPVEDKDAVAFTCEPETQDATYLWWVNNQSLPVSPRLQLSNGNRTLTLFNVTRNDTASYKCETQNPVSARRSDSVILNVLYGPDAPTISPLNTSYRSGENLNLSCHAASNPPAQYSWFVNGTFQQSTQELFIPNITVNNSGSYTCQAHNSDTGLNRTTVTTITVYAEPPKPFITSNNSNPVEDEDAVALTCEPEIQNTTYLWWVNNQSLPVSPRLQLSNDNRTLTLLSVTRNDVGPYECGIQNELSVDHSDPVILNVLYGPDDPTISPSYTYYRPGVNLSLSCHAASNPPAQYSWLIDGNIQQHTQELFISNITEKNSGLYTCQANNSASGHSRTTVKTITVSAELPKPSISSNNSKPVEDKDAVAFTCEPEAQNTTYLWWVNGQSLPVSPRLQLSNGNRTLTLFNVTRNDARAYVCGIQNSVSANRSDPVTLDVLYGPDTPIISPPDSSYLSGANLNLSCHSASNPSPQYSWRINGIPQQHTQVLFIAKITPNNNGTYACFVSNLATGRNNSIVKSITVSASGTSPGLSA

human CD28 [2] = target: T3, human CD28 (human, UniProt P10747 19-152); assay: affinity; method not given
T3 construct: also called Cluster of Differentiation 28; Tp44

CEACAM5 [3] = target: T2, CEACAM5; assay: CEACAM5 affinity as quoted in the text; method not given
CEACAM5 [4] = target: T2, CEACAM5; assay: binding affinity (Octet at 25 C per FIG. 80 legend)
CEACAM8 = target: T4, CEACAM8 (UniProt P31997 35-320); assay: as above
T4 sequence (looked up): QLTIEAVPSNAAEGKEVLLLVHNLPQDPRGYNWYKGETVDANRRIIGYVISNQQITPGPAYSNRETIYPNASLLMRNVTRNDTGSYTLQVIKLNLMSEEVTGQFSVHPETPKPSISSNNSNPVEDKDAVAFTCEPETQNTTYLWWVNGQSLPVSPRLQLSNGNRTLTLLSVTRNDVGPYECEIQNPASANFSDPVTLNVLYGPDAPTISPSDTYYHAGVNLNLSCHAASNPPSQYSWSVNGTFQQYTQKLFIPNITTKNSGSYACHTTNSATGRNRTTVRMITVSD

human CD28 [5] = target: T3, human CD28; assay: CD28 affinity as quoted in the text; method not given
human CD28 [6] = target: T3, human CD28; assay: CD28 affinity of the scFv arm as quoted in the text; method not given

binding result (STEAP1): binds
B1: XENP46500 (antibody, human IgG1, kappa, V domains shown)
VH: QVQVQESGPGLVKPSQTLSLTCTVSGYSITSDYAWNWIRQPPGKKLEWIGYISNSGSTSYNPSLKSRVTISRDTSKNQFSLKLSSVTAADTAVYYCARERNYDYELYYYAMDYWGQGTLVTVSS
VL: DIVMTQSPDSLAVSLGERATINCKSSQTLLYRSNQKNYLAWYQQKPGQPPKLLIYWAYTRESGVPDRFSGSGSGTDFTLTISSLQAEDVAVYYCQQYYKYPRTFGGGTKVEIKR
notes: also called H1.21 and L1.115; copies: 2 + 2

binding result (STEAP1): binds
B2: XENP45835 (antibody, V domains shown)
VH: B1 VH with E105D, L106D
VL: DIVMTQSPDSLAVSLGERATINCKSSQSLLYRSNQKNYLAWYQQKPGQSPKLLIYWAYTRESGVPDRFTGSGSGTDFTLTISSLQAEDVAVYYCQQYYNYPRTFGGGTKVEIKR
notes: also called L1.56; H1 and L1.56; copies: 2 + 2

Kd (CEACAM5 [1]): 0.7 to 2 nM
B3: CEA-A_H0L0 (antibody, V domains shown)
VH: EVKLVESGGGLVQPGGSLRLSCATSGFTFTDYYMNWVRQPPGKALEWLGFIGNKANGYTTEYSASVKGRFTISRDKSQSILYLQMNTLRAEDSATYYCTRDRGLRFYFDYWGQGTTLTVSS
VL: QTVLSQSPAILSASPGEKVTMTCRASSSVTYIHWYQQKPGSSPKSWIYATSNLASGVPARFSGSGSGTSYSLTISRVEAEDAATYYCQHWSSKPPTFGGGTKLEIK
notes: also called parental CEA-A

Kd (human CD28 [2]): ~200 nM
B4: 1A7_H1.14_L1 (antibody, V domains shown)
VH: EVQLLESGGGLVQPGGSLRLSCAASGFTFSSYYMSWVRQAPGKGLEWVSTISESGDSTYYADSVKGRFTISRDNSKNTLYLQMNSLRAEDTAVYYCAKSGPGLRQVGFDYWGQGTLVTVSS
VL: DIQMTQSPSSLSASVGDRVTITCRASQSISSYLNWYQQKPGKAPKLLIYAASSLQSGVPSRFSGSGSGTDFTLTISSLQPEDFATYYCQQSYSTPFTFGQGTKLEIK
notes: Anti-CD28 VH/VL pair; also called 1A7[CD28]_H1.14_L1

Kd (CEACAM5 [1]): 57 to 69 nM
B5: CEA-A_H1L2 (antibody, V domains shown)
VH: EVQLVESGGGLVQPGGSLRLSCATSGFTFTDYYMNWVRQAPGKALEWVGFIGNKANGYTTEYSASVKGRFTISRDKSKSSLYLQMNSLKTEDTAVYYCTRDRGLRFYFDYWGQGTLVTVSS
VL: EIVLTQSPATLSLSPGERATLSCRASSSVTYIHWYQQKPGQAPRLLIYATSNLASGIPARFSGSGSGTDFTLTISSLEPEDFAVYYCQHWSSKPPTFGGGTKVEIK
notes: also called HIL2

Kd (CEACAM5 [3]): 5 nM
B6: XENP44745 (bispecific antibody)
chain 1: B5 VH
chain 2: B5 VL with E1Q, I2T, A42S, L45S, I57V, F70Y
chain 3: not shown

Kd (CEACAM5 [3]): 57 nM
B7: XENP44746 (bispecific antibody)
chain 1: B5 VH
chain 2: B5 VL
chain 3: not shown

Kd (CEACAM5 [4]): 13 nM
Kd (CEACAM8): 3330 nM
B8: CEA-A_H1.7_L2.15 (antibody, V domains shown)
VH: B5 VH with T24A, A44G, G57A
VL: B5 VL with R44K, L45S

Kd (CEACAM5 [1]): 5 to 8 nM
B9: CEA-A_H1L1 (antibody, V domains shown)
VH: B5 VH
VL: B5 VL with E1Q, I2T, A42S, L45S, I57V, F70Y
notes: also called humanized H1L1

Kd (human CD28 [5]): 26 nM
B10: XENP45915 (bispecific antibody)
heavy: EVQLVESGGGLVQPGGSLRLSCAASGFTFTDYYMNWVRQAPGKGLEWVGFIGNKANAYTTEYSASVKGRFTISRDKSKSSLYLQMNSLKTEDTAVYYCTRDRGLRFYFDYWGQGTLVTVSSASTKGPSVFPLAPSSKSTSGGTAALGCLVKDYFPEPVTVSWNSGALTSGVHTFPAVLQSSGLYSLSSVVTVPSSSLGTQTYICNVNHKPSDTKVDKKVEPKSCDKTHTCPPCPAPPVAGPSVFLFPPKPKDTLMISRTPEVTCVVVDVKHEDPEVKFNWYVDGVEVHNAKTKPREEEYNSTYRVVSVLTVLHQDWLNGKEYKCKVSNKALPAPIEKTISKAKGQPREPQVYTLPPSREEMTKNQVSLTCDVSGFYPSDIAVEWESDGQPENNYKTTPPVLDSDGSFFLYSKLTVDKSRWEQGDVFSCSVLHEALHSHYTQKSLSLSPGK
scFv-Fc: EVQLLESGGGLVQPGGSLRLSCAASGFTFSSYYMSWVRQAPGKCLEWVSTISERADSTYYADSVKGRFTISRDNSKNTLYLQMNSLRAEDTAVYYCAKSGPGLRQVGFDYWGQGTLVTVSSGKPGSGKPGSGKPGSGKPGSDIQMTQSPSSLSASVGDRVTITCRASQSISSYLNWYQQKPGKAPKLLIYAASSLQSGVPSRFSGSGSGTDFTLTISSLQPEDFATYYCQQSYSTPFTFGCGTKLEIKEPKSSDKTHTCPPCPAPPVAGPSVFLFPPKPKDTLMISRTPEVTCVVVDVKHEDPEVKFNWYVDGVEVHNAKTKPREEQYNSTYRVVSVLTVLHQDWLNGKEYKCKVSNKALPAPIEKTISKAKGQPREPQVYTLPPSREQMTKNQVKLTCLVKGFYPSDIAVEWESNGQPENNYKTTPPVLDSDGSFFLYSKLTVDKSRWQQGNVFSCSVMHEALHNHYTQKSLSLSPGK
light: EIVLTQSPATLSLSPGERATLSCRASSSVTYIHWYQQKPGQAPKSLIYATSNLASGIPARFSGSGSGTDFTLTISSLEPEDFAVYYCQHWSSKPPTFGGGTKVEIKRTVAAPSVFIFPPSDEQLKSGTASVVCLLNNFYPREAKVQWKVDNALQSGNSQESVTEQDSKDSTYSLSSTLTLSKADYEKHKVYACEVTHQGLSSPVTKSFNRGEC

Kd (human CD28 [5]): 130 nM
B11: XENP44915 (bispecific antibody, human IgG1, kappa)
heavy: B10 heavy
scFv-Fc: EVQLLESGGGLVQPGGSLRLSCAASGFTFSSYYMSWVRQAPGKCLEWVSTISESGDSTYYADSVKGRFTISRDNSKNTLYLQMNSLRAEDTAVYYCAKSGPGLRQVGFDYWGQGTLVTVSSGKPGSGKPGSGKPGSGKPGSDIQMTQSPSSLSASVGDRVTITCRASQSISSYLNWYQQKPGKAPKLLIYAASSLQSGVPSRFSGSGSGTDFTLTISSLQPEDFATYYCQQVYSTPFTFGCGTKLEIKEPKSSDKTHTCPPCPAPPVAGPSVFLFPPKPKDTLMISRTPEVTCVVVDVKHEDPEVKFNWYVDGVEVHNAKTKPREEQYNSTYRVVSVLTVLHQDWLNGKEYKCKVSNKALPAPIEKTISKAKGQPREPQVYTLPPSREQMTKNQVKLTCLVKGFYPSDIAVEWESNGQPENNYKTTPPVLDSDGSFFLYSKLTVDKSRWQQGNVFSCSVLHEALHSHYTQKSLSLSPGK
light: B10 light

Kd (human CD28 [6]): 37 nM
B12: XENP44332 (bispecific antibody)
heavy: EVKLVESGGGLVQPGGSLRLSCATSGFTFTDYYMNWVRQPPGKALEWLGFIGNKANGYTTEYSASVKGRFTISRDKSQSILYLQMNTLRAEDSATYYCTRDRGLRFYFDYWGQGTTLTVSSASTKGPSVFPLAPSSKSTSGGTAALGCLVKDYFPEPVTVSWNSGALTSGVHTFPAVLQSSGLYSLSSVVTVPSSSLGTQTYICNVNHKPSDTKVDKKVEPKSCDKTHTCPPCPAPPVAGPSVFLFPPKPKDTLMISRTPEVTCVVVDVKHEDPEVKFNWYVDGVEVHNAKTKPREEEYNSTYRVVSVLTVLHQDWLNGKEYKCKVSNKALPAPIEKTISKAKGQPREPQVYTLPPSREEMTKNQVSLTCDVSGFYPSDIAVEWESDGQPENNYKTTPPVLDSDGSFFLYSKLTVDKSRWEQGDVFSCSVMHEALHNHYTQKSLSLSPGK
scFv-Fc: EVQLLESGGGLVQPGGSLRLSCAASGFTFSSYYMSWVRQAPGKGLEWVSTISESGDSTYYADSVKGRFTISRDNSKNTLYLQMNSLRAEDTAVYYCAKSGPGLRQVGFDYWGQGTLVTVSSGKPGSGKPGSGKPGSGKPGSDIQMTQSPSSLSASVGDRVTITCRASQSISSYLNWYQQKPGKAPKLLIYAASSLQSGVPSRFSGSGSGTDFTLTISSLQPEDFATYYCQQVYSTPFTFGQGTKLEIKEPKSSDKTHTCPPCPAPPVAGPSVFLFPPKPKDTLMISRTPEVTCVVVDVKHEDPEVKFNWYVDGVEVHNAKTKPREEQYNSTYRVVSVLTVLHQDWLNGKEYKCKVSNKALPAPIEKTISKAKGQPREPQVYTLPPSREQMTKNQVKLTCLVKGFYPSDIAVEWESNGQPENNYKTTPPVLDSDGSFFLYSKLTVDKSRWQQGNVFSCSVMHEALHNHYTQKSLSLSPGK
light: QTVLSQSPAILSASPGEKVTMTCRASSSVTYIHWYQQKPGSSPKSWIYATSNLASGVPARFSGSGSGTSYSLTISRVEAEDAATYYCQHWSSKPPTFGGGTKLEIKRTVAAPSVFIFPPSDEQLKSGTASVVCLLNNFYPREAKVQWKVDNALQSGNSQESVTEQDSKDSTYSLSSTLTLSKADYEKHKVYACEVTHQGLSSPVTKSFNRGEC

Kd (CEACAM5 [3]): ~0.7 nM
B13: XENP44338 (bispecific antibody)
heavy: B12 heavy
scFv-Fc: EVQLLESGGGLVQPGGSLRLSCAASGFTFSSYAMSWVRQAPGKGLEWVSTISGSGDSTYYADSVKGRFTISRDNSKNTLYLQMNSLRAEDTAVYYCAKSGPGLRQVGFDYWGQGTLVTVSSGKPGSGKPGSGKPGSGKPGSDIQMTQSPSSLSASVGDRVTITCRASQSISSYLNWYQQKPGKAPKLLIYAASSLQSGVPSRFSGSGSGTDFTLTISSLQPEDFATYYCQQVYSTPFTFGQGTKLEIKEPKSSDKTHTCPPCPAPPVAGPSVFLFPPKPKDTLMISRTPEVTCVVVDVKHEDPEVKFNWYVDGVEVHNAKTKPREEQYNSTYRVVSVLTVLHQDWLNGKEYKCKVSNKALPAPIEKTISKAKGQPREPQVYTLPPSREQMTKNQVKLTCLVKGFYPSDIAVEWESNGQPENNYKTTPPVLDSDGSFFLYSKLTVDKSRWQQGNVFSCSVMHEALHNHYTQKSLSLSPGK
light: B12 light

Kd (human CD28 [6]): 96 nM
B14: XENP44560 (bispecific antibody)
heavy: B12 heavy
scFv-Fc: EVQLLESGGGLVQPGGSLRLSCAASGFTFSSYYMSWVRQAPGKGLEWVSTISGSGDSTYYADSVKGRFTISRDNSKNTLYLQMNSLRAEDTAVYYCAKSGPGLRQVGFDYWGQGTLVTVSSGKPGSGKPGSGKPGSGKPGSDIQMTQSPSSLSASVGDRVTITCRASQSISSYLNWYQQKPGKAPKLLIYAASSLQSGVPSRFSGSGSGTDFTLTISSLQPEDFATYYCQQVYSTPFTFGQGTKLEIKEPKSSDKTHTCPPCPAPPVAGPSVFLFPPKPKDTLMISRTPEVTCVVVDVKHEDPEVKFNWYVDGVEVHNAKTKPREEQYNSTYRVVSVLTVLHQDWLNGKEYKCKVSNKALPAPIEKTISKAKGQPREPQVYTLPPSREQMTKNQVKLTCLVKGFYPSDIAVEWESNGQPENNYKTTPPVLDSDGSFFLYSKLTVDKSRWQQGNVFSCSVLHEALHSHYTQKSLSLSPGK
light: B12 light
notes: copies: 1 + 1 + 1
